Results taken from patent US10568949B2, “Method of eliciting an anti-tumor immune response with controlled delivery of TLR agonists in porous polymerlc devices” (President and Fellows of Harvard College, priority 2008, dated 2020).

Columns and labels:
[1] = tested on: IL-12p70; assay: Example 7: cytokine concentrations at implant site; type: in vivo, C57BL/6J mice; settings: with GM-CSF
Description: To determine in vivo IL-12p70 concentration at the matrix implant site, adjacent tissue was excised and digested with tissue protein extraction reagent. After centrifugation, the concentrations of IL-12, in the supernatant were then analyzed with ELISA (R&D systems), according to the manufacturer's instructions.

[2] = tested on: B16-F10 melanoma cells; assay: Example 7: therapeutic vaccination of established B16-F10 melanoma
Description: To assess PLG vaccine efficacy in the therapeutic setting, C57/BL6J mice were challenged with a subcutaneous injection of 5×10^5 B16-F10 melanoma cells (ATCC, Manassas, N.J.) in the back of the neck. At day 9 after tumor challenge PLG vaccines loaded with 3000 ng GM-CSF in combination with 100 μg of CpG-ODN, MPLA or P(I:C), and tumor lysates were implanted subcutaneously into the lower left flank of C57BL/6J mice. A subset of mice were vaccinated again 10 days after the initial vaccination (Days 19 and 23).
Mice challenged with 5×10^5B16-F10 melanoma cells were subsequently vaccinated at days 9 and 19, after tumors were established.

[3] = tested on: B16-F10 cells; assay: Example 7: vaccination of mice lacking CD8(+) DCs; type: in vivo; settings: vaccinated Batf3−/− mice
Description: C57BL/6 mice and Batf3−/− knockout mice (6-8-week-old female; Jackson Laboratories) were used in the studies described in Example 7.
Since PLG vaccines incorporating TLR agonists were capable of generating CD8(+) DC populations in situ, which correlated to potent anti-tumor CTL responses and survival (FIGS. 17A-D and 19A-F), studies were carried out to examine whether these cells were required to confer anti-tumor immunity in vivo. […] Wild-type and Batf3−/− mice were vaccinated with CpG-ODN loaded PLG vaccines and challenged with B16-F10 cells 14 days later. Vaccination of wildtype mice promoted complete protection against tumor growth and long-term survival (100% survival), as expected, but vaccinated Batf3−/− were not protected and tumor growth rates were similar to untreated, wild-type animals (FIG. 20A).

[4] = In vivo GM-CSF concentration in tissue around PLG implant; design: species or system C57BL/6J mice; settings: for GM-CSF concentration in surrounding tissue: peak
[5] = tested on: JAWSII DCs; assay: In vitro DC migration toward CCL19 (transwell); type: cell-based
Description: Migration assays were performed with 6.5 mm transwell dishes (Costar, Cambridge, Mass.) with a pore size of 5 μm. To test whether CpG-ODN stimulation may affect DC chemotaxis towards CCL19 (Peprotech, Rocky Hill, N.J.) in the presence of GM-CSF, 5×10^5 DCs stimulated with either 5 μg/ml of CpG-ODN or PEI-CPG-ODN (Charge Ratio of 7), and 0, 50 and 500 ng/ml GM-CSF were placed in the top wells and 300 ng/ml of CCL19 was placed in the bottom well. After 12 hours the cells that migrated into the bottom wells of the chamber were harvested and counted using a coulter counter. Dispersement of DCs from PEI-CpG-ODN loaded PLG matrices toward CCL19 was assessed by incorporating 5, 50 and 500 μg of condensates into PLG scaffolds (13 mm diameter, 2 mm thick that were quartered) seeded with 1×10^6 DCs and fixed onto transwells using bovine collagen (BD Biosciences, San Jose, Calif.). To test the effects of CpG stimulation in the presence of GM-CSF, 500 ng/ml of GM-CSF was supplemented into the media of the top wells with scaffolds containing 25 μg of PEI-CpG-ODN. At various timepoints, the cells that migrated into the bottom wells of the chamber were harvested and counted using a coulter counter.

[6] = tested on: B16-F10 melanoma cells; assay: Example 8: therapeutic vaccination, B16-F10 melanoma; type: in vivo, C57BL/6J mice; settings: vaccinated three days after tumor challenge
Description: PLG scaffolds containing B16-F10 melanoma tumor lysates, 100 μg CpG-ODN in combination with 3 μg GM-CSF, Flt3L or CCL20 were implanted subcutaneously into the lower left flank of C57BL/6J mice to act as cancer vaccines. To assess PLG vaccine efficacy in the therapeutic setting, C57/BL6J mice were challenged with a subcutaneous injection of 5×10^5 B16-F10 melanoma cells (ATCC, Manassas, N.J.) in the back of the neck, and 3 days after tumor challenge PLG vaccines were implanted subcutaneously into the lower left flank. Animals were monitored for the onset of tumor growth (approximately 1 mm^3) and sacrificed for humane reasons when tumors grew to 20-25 mm (longest diameter).

[7] = tested on: dendritic cells; assay: Example 8: DC recruitment and activation in cytokine loaded PLG matrices (FACS, day 7); type: in vivo, C57BL/6J mice
Description: To analyze DC recruitment by FACS analysis, scaffolds were excised and the ingrown tissue was digested into single cell suspensions using a collagenase solution (Worthingtion, 250 U/ml) that was agitated at 37° C. for 45 minutes. The cell suspensions were then poured through a 40 μm cell strainer to isolate cells from scaffold particles and the cells were pelleted and washed with cold PBS and counted using a Z2 coulter counter (Beckman Coulter). To assess, DC infiltration and activation, subsets of the total cell population isolated from PLG matrices were then stained with primary antibodies (BD Pharmingen, San Diego, Calif.) conjugated to fluorescent markers to allow for analysis by flow cytometry. APC-conjugated CD11c (dendritic cell marker), FITC-conjugated MHCII and PE-conjugated CD86 (B7, costimulatory molecule) stains were conducted for DC recruitment and activation analysis. To delineate the presence of the plasmacytoid DC subset, cells were also stained with APC-conjugated CD11c and PE-conjugated PDCA-1 (plasmacytoid DC marker). Cells were gated according to single positive FITC, APC and PE stainings using isotype controls. The percentage of cells staining positive for each surface antigen was recorded.

[8] = tested on: IL-12p70 and IFN-γ; settings: tumor lysate and CpG-ODN
Description: To determine the in vivo IL-12p70 and IFN-γ concentration at the matrix implant site, adjacent tissue was excised and digested with tissue protein extraction reagent at Day 10 after implantation (Pierce). After centrifugation, the concentrations of IL-12 and IFN-γ, in the supernatant were then analyzed with ELISA (R&D systems), according to the manufacturer's instructions. To determine the generation of TRP-2-specific cytotoxic T lymphocytes, single cell suspensions were prepared at Day 10 from the spleens of mice immunized with PLG vaccines. These cells were initially stained with PE-H-2Kb/TRP2 pentamers (Sigma Aldrich), and subsequently stained with FITC-anti-CD8 and PE-CY7 CD3 mAb (mAb (BD Pharmingen, San Diego) before being analyzed using flow cytometry.

[9] = tested on: TRP-2-specific cytotoxic T lymphocytes; assay: Example 8: TRP-2-specific cytotoxic T lymphocytes in spleens (Day 10); design: species or system C57BL/6J mice; settings: mouse, in vivo

CpG-ODN 1826
effect on IFN-α concentration at vaccine site [1]: elevated levels
complete tumor regression, fraction of vaccinated animals ([2]; mouse, in vivo): over a third
size of tumors that completely regressed / were eradicated ([2]; mouse, in vivo): 35 mm^2
long term survival of mice ([2]; vaccinated at days 9 and 19): 33%
decrease in TRP2 specific cytotoxic T cells at vaccine site vs wild-type [3]: 3 fold
protection against tumor growth [3]: not protected

B1: granulocyte macrophage colony stimulating factor (protein, UniProt P01587 18-141, looked up)
Granulocyte-macrophage …: APTRSPITVTRPWKHVEAIKEALNLLDDMPVTLNEEVEVVSNEFSFKKLTCVQTRLKIFEQGLRGNFTKLKGALNMTASYYQTYCPPTPETDCETQVTTYADFIDSLKTFLTDIPFECKKPGQK
notes: cytokine encapsulated in and released from PLG matrices to recruit DCs
day of secondary peak for GM-CSF in vivo ([4]; 3000 ng dose): 5 days
day of secondary peak for GM-CSF in vivo ([4]; 7000 ng dose): 7 days
GM-CSF concentration difference over no incorporated GM-CSF ([4]; 12 hours post-implantation): > 30 fold
period elevated GM-CSF levels were maintained ([4]; mouse, in vivo): approximately 10 days
GM-CSF concentration in surrounding tissue ([4]; 12 hours post-implantation, 1-3 mm from implant site): 100 µg/mL
GM-CSF concentration in surrounding tissue ([4]; 12 hours post-implantation, 3-5 mm from implant site): 30 µg/mL
concentration that inhibited DC migration toward CCL19 [5]: > 100 ng/mL
long-term survival rate [6]: 88%
DC recruitment relative to blank PLG matrices ([7]; day 7): > 5 fold
MHCII(+) and CD86(+) DCs of total DCs recruited ([7]; in combination with CpG-ODN): 54-66%
increase in total number of activated DCs relative to control matrices devoid of cytokines ([7]; in combination with CpG-ODN): Approximately 8 fold
resident CD11c(+)PDCA-1(+) pDCs ([7]; in combination with CpG-ODN): approximately 110,000
increase in local concentration of IFN-γ over control scaffolds [8]: ~6 fold
increase in local concentration of IL-12 over control scaffolds [8]: approximately 3 fold
Trp2 specific CTLs in spleens, higher than control vaccines [9]: ~4 fold
